# In patent US20220249597A1 (Johns Hopkins, published 2022):
# B1: AIFm567-592 (full length AIF with aa567-592 mutated into polyalanines) (other, mouse, UniProt Q9Z0X1 1-612, looked up)
# chain: MFRCGGLAGAFKQKLVPLVRTVYVQRPKQRNRLPGNLFQQWRVPLELQMARQMASSGSSGGKMDNSVLVLIVGLSTIGAGAYAYKTIKEDQKRYNERVMGLGLSPEEKQRRAIASATEGGSVPQIRAPSHVPFLLIGGGTAAFAAARSIRARDPGARVLIVSEDPELPYMRPPLSKELWFSDDPNVTKTLQFRQWNGKERSIYFQPPSFYVSAQDLPNIENGGVAVLTGKKVVHLDVRGNMVKLNDGSQITFEKCLIATGGTPRSLSAIDRAGAEVKSRTTLFRKIGDFRALEKISREVKSITVIGGGFLGSELACALGRKSQASGIEVIQLFPEKGNMGKILPQYLSNWTMEKVKREGVKVMPNAIVQSVGVSGGRLLIKLKDGRKVETDHIVTAVGLEPNVELAKTGGLEIDSDFGGFRVNAELQARSNIWVAGDAACFYDIKLGRRRVEHHDHAVVSGRLAGENMTGAAKPYWHQSMFWSDLGPDVGYEAIGLVDSSLPTVGVFAKATAQDNPKSATEQSGTGIRSESETESEASEITIPPSAPAVPQVPVEGEDYGKGVIFYAAAAAAAAAAAAAAAAAAAAAAAAAADGEQHEDLNEVAKLFNIHED
# B2: AIFA567-592 (full length AIF with aa567-592 deleted) (other, mouse, UniProt Q9Z0X1 1-612, looked up)
# chain: MFRCGGLAGAFKQKLVPLVRTVYVQRPKQRNRLPGNLFQQWRVPLELQMARQMASSGSSGGKMDNSVLVLIVGLSTIGAGAYAYKTIKEDQKRYNERVMGLGLSPEEKQRRAIASATEGGSVPQIRAPSHVPFLLIGGGTAAFAAARSIRARDPGARVLIVSEDPELPYMRPPLSKELWFSDDPNVTKTLQFRQWNGKERSIYFQPPSFYVSAQDLPNIENGGVAVLTGKKVVHLDVRGNMVKLNDGSQITFEKCLIATGGTPRSLSAIDRAGAEVKSRTTLFRKIGDFRALEKISREVKSITVIGGGFLGSELACALGRKSQASGIEVIQLFPEKGNMGKILPQYLSNWTMEKVKREGVKVMPNAIVQSVGVSGGRLLIKLKDGRKVETDHIVTAVGLEPNVELAKTGGLEIDSDFGGFRVNAELQARSNIWVAGDAACFYDIKLGRRRVEHHDHAVVSGRLAGENMTGAAKPYWHQSMFWSDLGPDVGYEAIGLVDSSLPTVGVFAKATAQDNPKSATEQSGTGIRSESETESEASEITIPPSAPAVPQVPVEGEDYGKGVIFYDGEQHEDLNEVAKLFNIHED
# Target: T1, endogenous MIF (macrophage migration inhibitory factor) in HeLa cell lysates (human, UniProt P14174 2-115)
# T1 construct: Endogenous protein in lysate, detected by western blot with an anti-MIF antibody; also called MMIF; PAAN
# T1 sequence (P14174 2-115 limits assumed): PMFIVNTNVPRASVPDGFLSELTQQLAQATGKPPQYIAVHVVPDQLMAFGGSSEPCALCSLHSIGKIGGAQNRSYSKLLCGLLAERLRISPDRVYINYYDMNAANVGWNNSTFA
# Experiment: pull-down of AIF mutants, western blot with anti-MIF antibody
row,Binder,binding result
1,B1,no binding
2,B2,no binding
